22 molecules from patent publication US20190233493A1 (Sanofi, published 2019) can be followed below.

*1 amine or outer side, *2 acyl side, *3 side chain or, on linkers, in order; H or OH if unused. Primed or numbered codes have the meaning given here. Side-chain parts run from the residue outwards. [ ]: non-standard residue; d: D form. The star is where a group is joined. PEG2DGA = 2-[2-[3-[2-[2-(3-aminopropoxy)ethoxy]ethoxy]propylamino-2-oxo-ethoxy]acetyl; PEG12 = NCCOCCOCCOCCOCCOCCOCCOCCOCCOCCOCCOCCOCCC(=O)O; γGlu = O=C(O)[C@H](CCC(=O)[*:2])N[*:1]; 1Nal = N[C@@H](Cc1cccc2ccccc12)C(=O)O; Stearoyl = CCCCCCCCCCCCCCCCCC(=O)*; Palmitoyl = CCCCCCCCCCCCCCCC(=O)*; Nle = CCCC[C@H](N)C(=O)O; PEG2′ = PEG2 spacer unit; PEG2″ = not defined here; Aib = CC(C)(N)C(=O)O

The target in this test is T1, RXFP1 receptor (UniProt Q9HBX9 1-757, limits assumed).
T1 sequence (looked up): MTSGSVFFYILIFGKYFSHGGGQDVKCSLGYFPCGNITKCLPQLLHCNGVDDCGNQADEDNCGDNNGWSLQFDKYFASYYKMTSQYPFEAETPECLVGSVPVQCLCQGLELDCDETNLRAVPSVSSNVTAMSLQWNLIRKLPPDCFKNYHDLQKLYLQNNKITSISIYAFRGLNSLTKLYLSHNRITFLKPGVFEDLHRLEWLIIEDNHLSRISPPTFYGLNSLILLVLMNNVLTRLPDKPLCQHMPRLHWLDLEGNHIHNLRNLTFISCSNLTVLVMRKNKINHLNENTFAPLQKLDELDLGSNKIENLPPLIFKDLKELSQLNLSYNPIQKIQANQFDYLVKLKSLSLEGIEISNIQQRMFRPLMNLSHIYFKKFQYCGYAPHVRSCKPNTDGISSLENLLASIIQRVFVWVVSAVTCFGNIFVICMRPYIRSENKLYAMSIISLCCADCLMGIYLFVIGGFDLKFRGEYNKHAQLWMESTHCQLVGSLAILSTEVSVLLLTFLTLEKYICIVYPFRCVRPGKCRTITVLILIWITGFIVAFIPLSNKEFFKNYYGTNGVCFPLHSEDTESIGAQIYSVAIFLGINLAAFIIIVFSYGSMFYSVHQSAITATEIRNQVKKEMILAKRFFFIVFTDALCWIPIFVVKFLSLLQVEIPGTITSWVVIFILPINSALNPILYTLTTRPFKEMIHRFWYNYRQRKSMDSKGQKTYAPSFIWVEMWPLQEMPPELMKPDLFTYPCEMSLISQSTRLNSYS
In words: cell-based or functional assay.

Ac-LEGREKVRAQI[Aib][Aib]EG[Nle]STWS[Aib]RKKK([PEG2′-PEG2′-γGlu-γGlu-γGlu-PEG2′-Stearoyl])-NH2 [peptide of SEQ ID NO: 98]: the “EC50 (nM), OVCAR 5 cells (cAMP)” value is 0.74 nM and the “EMax, OVCAR 5 cells (cAMP)” value amounted to 99%.

For Ac-LEGREKVRAK(Ac)I[Aib][Aib]EG[Nle]STWS[Aib]RKKK([PEG2′-PEG2′-PEG2′-γGlu-γGlu-γGlu-γGlu-Stearoyl])-NH2 [peptide of SEQ ID NO: 89], the “EC50 (nM), OVCAR 5 cells (cAMP)” value turned out to be 0.03 nM and the “EMax, OVCAR 5 cells (cAMP)” value amounted to 79%.

With Ac-LEGREKVRAQI[Aib][Aib]EG[Nle]STWS[Aib]RKKK([PEG2′-PEG2′-PEG2′-γGlu-γGlu-γGlu-γGlu-Stearoyl])-NH2 [peptide of SEQ ID NO: 88], the “EC50 (nM), OVCAR 5 cells (cAMP)” value came out at 0.11 nM and the “EMax, OVCAR 5 cells (cAMP)” value came to 74%.

For Ac-LEGREKVRAQI[Aib][Aib]EG[Nle]STWS[Aib]RKK([PEG2″-PEG2″-γGlu-γGlu-PEG2″-γGlu-Stearoyl])-NH2 [peptide of SEQ ID NO: 100], the “EC50 (nM), OVCAR 5 cells (cAMP)” value was determined as 0.16 nM and the “EMax, OVCAR 5 cells (cAMP)” value came out at 90%.

B1: peptide of SEQ ID NO: 9 (peptide)
peptide: Ac-LEGREKVRAQI[Aib][Aib]EG[Nle]STWS[Aib]RKK([γGlu-γGlu-γGlu-Stearoyl])-NH2
SMILES: CCCCCCCCCCCCCCCCCC(=O)N[C@@H](CCC(=O)N[C@@H](CCC(=O)N[C@@H](CCC(=O)NCCCC[C@H](NC(=O)[C@H](CCCCN)NC(=O)[C@H](CCCNC(=N)N)NC(=O)C(C)(C)NC(=O)[C@H](CO)NC(=O)[C@H](Cc1c[nH]c2ccccc12)NC(=O)[C@@H](NC(=O)[C@H](CO)NC(=O)[C@H](CCCC)NC(=O)CNC(=O)[C@H](CCC(=O)O)NC(=O)C(C)(C)NC(=O)C(C)(C)NC(=O)[C@@H](NC(=O)[C@H](CCC(N)=O)NC(=O)[C@H](C)NC(=O)[C@H](CCCNC(=N)N)NC(=O)[C@@H](NC(=O)[C@H](CCCCN)NC(=O)[C@H](CCC(=O)O)NC(=O)[C@H](CCCNC(=N)N)NC(=O)CNC(=O)[C@H](CCC(=O)O)NC(=O)[C@H](CC(C)C)NC(C)=O)C(C)C)[C@@H](C)CC)[C@@H](C)O)C(N)=O)C(=O)O)C(=O)O)C(=O)O
As for B1, the “EC50 (nM), OVCAR 5 cells (cAMP)” value came to 11.8 nM and the “EMax, OVCAR 5 cells (cAMP)” value is 95%.

With Ac-LEGREKVRAQI[Aib][Aib]EG[Nle]STWS[Aib]RK[PEG2″]K([γGlu-γGlu-γGlu-Palmitoyl])-NH2 [peptide of SEQ ID NO: 10], the “EC50 (nM), OVCAR 5 cells (cAMP)” value worked out at 18.9 nM and the “EMax, OVCAR 5 cells (cAMP)” value came out at 96%.

Turning to Ac-LEGREKVRAK(Ac)I[Aib][Aib]EG[Nle]ST[1Nal]S[Aib]RKKK([PEG2″-PEG2″-γGlu-γGlu-γGlu-PEG2″-γGlu-Stearoyl])-NH2 [peptide of SEQ ID NO: 103], the “EC50 (nM), OVCAR 5 cells (cAMP)” value was 0.09 nM and the “EMax, OVCAR 5 cells (cAMP)” value stood at 79%.

Take Ac-LEGREKVRAK(Ac)I[Aib][Aib]EG[Nle]STWS[Aib]RKKK([PEG2′-PEG2′-PEG2′-PEG2′-γGlu-γGlu-γGlu-Stearoyl])-NH2 [peptide of SEQ ID NO: 91]: the “EC50 (nM), OVCAR 5 cells (cAMP)” value turned out to be 0.01 nM and the “EMax, OVCAR 5 cells (cAMP)” value came out at 88%.

For the molecule Ac-LEGREKVRAK(Ac)I[Aib][Aib]EG[Nle]STWS[Aib]RKK(Ac)K([PEG2′-PEG2′-PEG2′-PEG2′-γGlu-γGlu-γGlu-Stearoyl])-NH2 [peptide of SEQ ID NO: 90], the “EC50 (nM), OVCAR 5 cells (cAMP)” value turned out to be 0.07 nM and the “EMax, OVCAR 5 cells (cAMP)” value came to 89%.

Consider Ac-LEGREKVRAQI[Aib][Aib]EG[Nle]STWS[Aib]RKKK([PEG2′-PEG2′-PEG2′-PEG2′-PEG2′-γGlu-γGlu-γGlu-Stearoyl])-NH2 [peptide of SEQ ID NO: 93], for which the “EC50 (nM), OVCAR 5 cells (cAMP)” value is 0.14 nM and the “EMax, OVCAR 5 cells (cAMP)” value is 87%.

Regarding Ac-LEGREKVRAQI[Aib][Aib]EG[Nle]STWS[Aib]RKK([γGlu-γGlu-PEG2″-PEG2″-γGlu-Stearoyl])-NH2 [peptide of SEQ ID NO: 104], the “EC50 (nM), OVCAR 5 cells (cAMP)” value was determined as 0.16 nM and the “EMax, OVCAR 5 cells (cAMP)” value was 89%.

On to Ac-LEGREKVRAK(Ac)I[Aib][Aib]EG[Nle]STWS[Aib]RKK(Ac)K([PEG2DGA-PEG2DGA-PEG2DGA-γGlu-γGlu-γGlu-Stearoyl])-NH2 [peptide of SEQ ID NO: 96], for which the “EC50 (nM), OVCAR 5 cells (cAMP)” value turned out to be 1.77 nM and the “EMax, OVCAR 5 cells (cAMP)” value amounted to 89%.

B2: peptide of SEQ ID NO: 97 (peptide)
peptide: Ac-LEGREKVRAQI[Aib][Aib]EG[Nle]STWS[Aib]RKKK([PEG12-γGlu-γGlu-γGlu-Stearoyl])-NH2
SMILES: CCCCCCCCCCCCCCCCCC(=O)N[C@@H](CCC(=O)N[C@@H](CCC(=O)N[C@@H](CCC(=O)NCCOCCOCCOCCOCCOCCOCCOCCOCCOCCOCCOCCOCCC(=O)NCCCC[C@H](NC(=O)[C@H](CCCCN)NC(=O)[C@H](CCCCN)NC(=O)[C@H](CCCNC(=N)N)NC(=O)C(C)(C)NC(=O)[C@H](CO)NC(=O)[C@H](Cc1c[nH]c2ccccc12)NC(=O)[C@@H](NC(=O)[C@H](CO)NC(=O)[C@H](CCCC)NC(=O)CNC(=O)[C@H](CCC(=O)O)NC(=O)C(C)(C)NC(=O)C(C)(C)NC(=O)[C@@H](NC(=O)[C@H](CCC(N)=O)NC(=O)[C@H](C)NC(=O)[C@H](CCCNC(=N)N)NC(=O)[C@@H](NC(=O)[C@H](CCCCN)NC(=O)[C@H](CCC(=O)O)NC(=O)[C@H](CCCNC(=N)N)NC(=O)CNC(=O)[C@H](CCC(=O)O)NC(=O)[C@H](CC(C)C)NC(C)=O)C(C)C)[C@@H](C)CC)[C@@H](C)O)C(N)=O)C(=O)O)C(=O)O)C(=O)O
Consider B2, for which the “EC50 (nM), OVCAR 5 cells (cAMP)” value was 4.92 nM and the “EMax, OVCAR 5 cells (cAMP)” value was 98%.

In the case of Ac-LEGREKVRAQI[Aib][Aib]EG[Nle]STWS[Aib]RKKK([PEG2′-PEG2′-PEG2′-PEG2′-γGlu-γGlu-γGlu-Stearoyl])-NH2 [peptide of SEQ ID NO: 92], the “EC50 (nM), OVCAR 5 cells (cAMP)” value is 0.26 nM and the “EMax, OVCAR 5 cells (cAMP)” value worked out at 82%.

As to Ac-LEGREKVRAK(Ac)I[Aib][Aib]EG[Nle]ST[1Nal]S[Aib]RK(Ac)LK([PEG2′-PEG2′-PEG2′-γGlu-γGlu-γGlu-Stearoyl])-NH2 [peptide of SEQ ID NO: 87], the “EC50 (nM), OVCAR 5 cells (cAMP)” value is 1.63 nM and the “EMax, OVCAR 5 cells (cAMP)” value worked out at 71%.

Take Ac-LEGREKVRAQI[Aib][Aib]EG[Nle]STWS[Aib]RKKK([PEG2′-PEG2′-γGlu-γGlu-PEG2′-γGlu-Stearoyl])-NH2 [peptide of SEQ ID NO: 99]: the “EC50 (nM), OVCAR 5 cells (cAMP)” value was 0.01 nM and the “EMax, OVCAR 5 cells (cAMP)” value is 87%.

Take Ac-LEGREKVRAK(Ac)I[Aib][Aib]EG[Nle]ST[1Nal]S[Aib]RKK(Ac)K([PEG2′-PEG2′-PEG2′-γGlu-γGlu-γGlu-Stearoyl])-NH2 [peptide of SEQ ID NO: 84]: the “EC50 (nM), OVCAR 5 cells (cAMP)” value is 0.09 nM and the “EMax, OVCAR 5 cells (cAMP)” value amounted to 76%.

Ac-LEGREKVR[Aib]K(Ac)I[Aib][Aib]EG[Nle]ST[1Nal]S[Aib]RKK(Ac)K([PEG2′-PEG2′-PEG2′-γGlu-γGlu-γGlu-Stearoyl])-NH2 [peptide of SEQ ID NO: 85]: the “EC50 (nM), OVCAR 5 cells (cAMP)” value is 0.77 nM and the “EMax, OVCAR 5 cells (cAMP)” value amounted to 75%.

For the molecule Ac-LEGREKVRAK(Ac)I[Aib][Aib]EG[Nle]STWS[Aib]RKKK([PEG2″-PEG2″-γGlu-γGlu-γGlu-PEG2″-γGlu-Stearoyl])-NH2 [peptide of SEQ ID NO: 102], the “EC50 (nM), OVCAR 5 cells (cAMP)” value worked out at 0.08 nM and the “EMax, OVCAR 5 cells (cAMP)” value was determined as 80%.

With Ac-LEGREKVRAK(Ac)I[Aib][Aib]EG[Nle]STWS[Aib]RKK(Ac)K([PEG2DGA-PEG2DGA-γGlu-γGlu-γGlu-Stearoyl])-NH2 [peptide of SEQ ID NO: 95], the “EC50 (nM), OVCAR 5 cells (cAMP)” value was determined as 1.03 nM and the “EMax, OVCAR 5 cells (cAMP)” value turned out to be 87%.

On to Ac-LEGREKVRAK(Ac)I[Aib][Aib]EG[Nle]STWS[Aib]RKK(Ac)K([PEG2DGA-γGlu-γGlu-γGlu-Stearoyl])-NH2 [peptide of SEQ ID NO: 94], for which the “EC50 (nM), OVCAR 5 cells (cAMP)” value stood at 2.74 nM and the “EMax, OVCAR 5 cells (cAMP)” value came out at 90%.

As to Ac-LEGREKVRAK(Ac)I[Aib][Aib]EG[Nle]STWS[Aib]RKK(Ac)K([PEG2″-PEG2″-γGlu-γGlu-PEG2″-γGlu-Stearoyl])-NH2 [peptide of SEQ ID NO: 101], the “EC50 (nM), OVCAR 5 cells (cAMP)” value amounted to 0.16 nM and the “EMax, OVCAR 5 cells (cAMP)” value came out at 86%.
